System: MS2 coat protein
Experiment: apparent KD of MS2 coat protein; designed switch direction (-1 OFF switch, 1 ON switch): -1; higher = weaker reporter binding
How it was run: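 For each design, the apparent KD is the median over clusters of curves fitted to normalised cluster fluorescence. Clusters held RNA switches with common flanks, transcribed on Illumina chips by stalled E. coli RNA polymerase. These were titrated with SNAP-549-labelled MS2 coat protein, doubling from 0.7 or 1.5 nM to 3 µM, without input, with 200 uM small-molecule ligand, or with an oligonucleotide input.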

[1] = Eterna round: R95, input ligand: FMN 200 uM
[2] = Eterna round: R95, input ligand: microRNA oligo, concentration not stated
[3] = Eterna round: R95, input ligand: none
[4] = input ligand: microRNA oligo, concentration not stated

With “ACAACAAGCUUUUUGAACGUAGAACAUGCAGCUCUAGAAACAUGAGGAUCACCCAUGUAAGCCAGUUAGAUAGGUGA [JR_SV3TOV2_Sub067] (puzzle: Sensor v3, turn-off variant 2)” the “apparent KD of MS2 coat protein” value [1] was 76.1 nM, the “apparent KD of MS2 coat protein” value [2] was 69.1 nM and the “apparent KD of MS2 coat protein” value [3] was 89.5 nM.
“ACAACAAGCUUUUUGUUCGUAGAACAUGAUGCUCUAGUCACAUGAGGAUCACCCAUGUCAGCCAGUUAGAUAGGUGA [JR_SV3TOV2_Sub064] (Eterna round: R96, puzzle: Sensor v3, turn-off variant 2)” was tested, and the “apparent KD of MS2 coat protein” value (input ligand: FMN 200 uM) was 96.7 nM, the “apparent KD of MS2 coat protein” value [4] was 133 nM and the “apparent KD of MS2 coat protein” value (input ligand: none) was 86 nM.
With “ACAACAAGCUUUUUGUUCGUAGAACAUGAUGCUCUAGUCACAUGAGGAUCACCCAUGUCAGCCAGUUAGAUAGGUGA [JR_SV3TOV2_Sub064] (puzzle: Sensor v3, turn-off variant 2)” the “apparent KD of MS2 coat protein” value [1] was 75.2 nM, the “apparent KD of MS2 coat protein” value [2] was 133 nM and the “apparent KD of MS2 coat protein” value [3] was 81.1 nM.
In the case of “ACAAGCGAAAGGCUCGUCUUAUUUUUGUAGAGGUUCUAAACAUGAGGAUCACCCAUGUAGUGGCGAUGGUGGAGGUA [JR_SV3TOV2_Sub069] (puzzle: Sensor v3, turn-off variant 2)”, the “apparent KD of MS2 coat protein” value [1] is reported as 41.8 nM, the “apparent KD of MS2 coat protein” value [2] is reported as 44.2 nM and the “apparent KD of MS2 coat protein” value [3] is reported as 42.4 nM.
“ACAAGCUUGUAAUGACUUAACAUGAGGAUCACCCAUGUAAAUGGAAGAACCAACUUGAUAUGAUUUACUCGUCUUAU [JR_STOV1_Sub010] (Eterna round: R97, puzzle: Sensor, turn-off variant 1)” was tested, and the “apparent KD of MS2 coat protein” value (input ligand: FMN 200 uM) was 1140 nM and the “apparent KD of MS2 coat protein” value (input ligand: none) was 1030 nM.
For “ACAAGCUUUUUCAUAUCUUACAUGAGGAUCACCCAUGUUUUUGCAAUUAUGUUUGGGCUCUUUUGAGCUCGUCUUAU [JR_STOV1_Sub048] (Eterna round: R97, puzzle: Sensor, turn-off variant 1)”, the “apparent KD of MS2 coat protein” value (input ligand: FMN 200 uM) was 13.5 nM and the “apparent KD of MS2 coat protein” value (input ligand: none) was 14.4 nM.
In the case of “ACAAGCUUUUUGCAUGUUAGUUUUGUUGCUUCGUAUGUAACAUGAGGAUCACCCAUGUAAGACUGAUGUCGUCGUUU [JR_SV3TOV2_Sub088] (puzzle: Sensor v3, turn-off variant 2)”, the “apparent KD of MS2 coat protein” value [1] is reported as 44.9 nM, the “apparent KD of MS2 coat protein” value [2] is reported as 47.8 nM and the “apparent KD of MS2 coat protein” value [3] is reported as 61.6 nM.
With “ACAAGCUUUUUGCUCGUCUACAUGAGGAUCACCCAUGUAGUGAGAUAGUGGUGAAGAUAGAUUGAGCGUAGUAGGUA [JR_SV3TOV1_Sub071] (puzzle: Sensor v3, turn-off variant 1)” the “apparent KD of MS2 coat protein” value [1] was 26.9 nM, the “apparent KD of MS2 coat protein” value [2] was 51.7 nM and the “apparent KD of MS2 coat protein” value [3] was 21.5 nM.
In the case of “ACAAGCUUUUUGUUCGUCUUAUAAUAAUAAAUAAAUAUAACAUGAGGAUCACCCAUGUUGAGAAGACAGCCUCAUGU [Sesor Array 23 - Jieux - Sensor v3, turn-off variant 2] (puzzle: Sensor v3, turn-off variant 2)”, the “apparent KD of MS2 coat protein” value [1] is reported as 121 nM, the “apparent KD of MS2 coat protein” value [2] is reported as 42.7 nM and the “apparent KD of MS2 coat protein” value [3] is reported as 104 nM.
With “ACACAGCGAGGAUAUACAUGAGGAUCACCCAUGUGGCGGCCGUUACGGUAGCACUAGUGUAGAAGGCGCAUUGG [EX3 #35] (Eterna round: R97, puzzle: Exclusion 3)” the “apparent KD of MS2 coat protein” value (input ligand: FMN 200 uM) was 155 nM and the “apparent KD of MS2 coat protein” value (input ligand: none) was 192 nM.
With “ACACGGAUAGGAUAUACUUGAGGAUCACCCAAGUGGAACCGCUUGUCCCGAUCCUAGAGUAGAAGGAUCAAAUA [Anusxebiat] (Eterna round: R97, puzzle: Exclusion 3)” the “apparent KD of MS2 coat protein” value (input ligand: FMN 200 uM) was 149 nM and the “apparent KD of MS2 coat protein” value (input ligand: none) was 44.3 nM.
For “ACAGCUAUAGGAUAUACAGCGAGGAAACUUAGUGGGAUCGGACAUGAGGAUCACCCAUGUAGAAGGAUAGACGG [Eternabot (L2) Solution 85] (Eterna round: R97, puzzle: Exclusion 2)”, the “apparent KD of MS2 coat protein” value (input ligand: FMN 200 uM) was 149 nM and the “apparent KD of MS2 coat protein” value (input ligand: none) was 97.6 nM.
“ACAGUCACAUGGGUACCAGACAUGAGGAUCACCCAUGUGACAGGUACUUUGUGGCGUCUUGUAUAAUUAAUAAUCAA [Sensor v2, turn off variant (Maaon - vinnie MOD7)] (Eterna round: R96, puzzle: Sensor v2, turn-off variant)” was tested, and the “apparent KD of MS2 coat protein” value (input ligand: FMN 200 uM) was 9.97 nM, the “apparent KD of MS2 coat protein” value [4] was 14.3 nM and the “apparent KD of MS2 coat protein” value (input ligand: none) was 13.4 nM.
“ACAGUUUUGCAAGGAUAUCGUUUUAGUUUAUUACGAGAAGGUGCUUAAGUAAUUUCUUUGGGUUGACAUGAGGAUCACCCAUGU [JR_ExcNG1_Sub058] (Eterna round: R96, puzzle: Exclusion NG 1)” was tested, and the “apparent KD of MS2 coat protein” value (input ligand: FMN 200 uM) was 160 nM, the “apparent KD of MS2 coat protein” value [4] was 128 nM and the “apparent KD of MS2 coat protein” value (input ligand: none) was 139 nM.
With “ACAUGAAGAUAGGAUAUCCGCGAAAAUGGUCUAGGAGAAGGGUCUACAUGAGGAUCACCCAUGUAGCAGUGGAU [Eternabot (L1) Solution 79] (Eterna round: R97, puzzle: Exclusion 6)” the “apparent KD of MS2 coat protein” value (input ligand: FMN 200 uM) was 14.7 nM and the “apparent KD of MS2 coat protein” value (input ligand: none) was 16.7 nM.
For “ACAUGAGGAUCACCCAUGUACACGUAAUGGCUCAUGUAGAGUGAGGAUAUGUGAGACGAACGAGCACAGAAGGCACAAGACAGG [Deportation 10 - Jieux - Exclusion NG 3] (Eterna round: R96, puzzle: Exclusion NG 3)”, the “apparent KD of MS2 coat protein” value (input ligand: FMN 200 uM) was 38.3 nM, the “apparent KD of MS2 coat protein” value [4] was 23.8 nM and the “apparent KD of MS2 coat protein” value (input ligand: none) was 34.8 nM.
For “ACAUGAGGAUCACCCAUGUCAACGAAAAGGCUCAUGUAGAGUGAGGAUAUGUGAGACGAACGAGAACAGAAGGCACAAGACAGG [Deportation 3 - Jieux - Exclusion NG 3] (Eterna round: R96, puzzle: Exclusion NG 3)”, the “apparent KD of MS2 coat protein” value (input ligand: FMN 200 uM) was 31.8 nM, the “apparent KD of MS2 coat protein” value [4] was 16.6 nM and the “apparent KD of MS2 coat protein” value (input ligand: none) was 38.4 nM.
With “ACAUGAGGAUCACCCAUGUCAGGCGGGUCCACUCCGGCUGUUGAGGAUAUAGUCCGGUAUCCGCGCUAGAAGGUGAGGGCCGGC [Aenatbe mod 24] (Eterna round: R96, puzzle: Exclusion NG 3)” the “apparent KD of MS2 coat protein” value (input ligand: FMN 200 uM) was 20.6 nM, the “apparent KD of MS2 coat protein” value [4] was 15.4 nM and the “apparent KD of MS2 coat protein” value (input ligand: none) was 19.9 nM.
In the case of “ACAUGAGGAUCACCCAUGUCCGGCUGGUCCGUCUCGGCUGUCGAGGAUAUGGCUCGGUGUCCGCGCUAGAAGGCGGGAGCCGGA [Aenatbe mod 76] (Eterna round: R96, puzzle: Exclusion NG 3)”, the “apparent KD of MS2 coat protein” value (input ligand: FMN 200 uM) is reported as 31.6 nM, the “apparent KD of MS2 coat protein” value [4] is reported as 27.2 nM and the “apparent KD of MS2 coat protein” value (input ligand: none) is reported as 45.4 nM.
In the case of “ACAUGAGGAUCACCCAUGUCCGUCUGGUCUGUCUCGGCUGUCGAGGAUAUAGCUCGGUAUCCGCGCUAGAAGGCGGGAGUCGGA [Aenatbe mod 94] (Eterna round: R96, puzzle: Exclusion NG 3)”, the “apparent KD of MS2 coat protein” value (input ligand: FMN 200 uM) is reported as 24.3 nM, the “apparent KD of MS2 coat protein” value [4] is reported as 24.2 nM and the “apparent KD of MS2 coat protein” value (input ligand: none) is reported as 32.3 nM.
In the case of “ACAUGAGGAUCACCCAUGUCUGGCUGGUCUGCUCCGGCUGUUGAGGAUAUAGUCCGGUGUUCGCGCUAGAAGGUGAGGGCUGGA [Aenatbe mod 41] (Eterna round: R96, puzzle: Exclusion NG 3)”, the “apparent KD of MS2 coat protein” value (input ligand: FMN 200 uM) is reported as 107 nM, the “apparent KD of MS2 coat protein” value [4] is reported as 49.5 nM and the “apparent KD of MS2 coat protein” value (input ligand: none) is reported as 77.3 nM.
With “ACAUGAGGAUCACCCAUGUCUGGCUGGUCUGCUCCGGUUGUUGAGGAUAUAGUUCGGUGUUCGCGCUAGAAGGUGAGGGCUGGA [Aenatbe mod 39] (Eterna round: R96, puzzle: Exclusion NG 3)” the “apparent KD of MS2 coat protein” value (input ligand: FMN 200 uM) was 260 nM, the “apparent KD of MS2 coat protein” value [4] was 139 nM and the “apparent KD of MS2 coat protein” value (input ligand: none) was 176 nM.
For “ACAUGAGGAUCACCCAUGUGAAAACAAUGGCUGACACAGAGAUAGGAUAUAUGUGCAUAUCAAACAUAGAAGGGUCAUAACUGG [Deportation 85 - Jieux - Exclusion NG 3] (Eterna round: R96, puzzle: Exclusion NG 3)”, the “apparent KD of MS2 coat protein” value [4] was 40.6 nM.

Reference: the supplement of paper PMC9170038
